Consider one molecule from PMC3534135, “Interaction of the Transactivation Domain of B-Myb with the TAZ2 Domain of the Coactivator p300: Molecular Features and Properties of the Complex” (PLoS ONE, 2012).

The target in the test is T1, B-Myb transactivation domain (residues 275-376) (mouse, UniProt P48972 275-376).
T1 construct: also called B-Myb TAD
T1 sequence (looked up): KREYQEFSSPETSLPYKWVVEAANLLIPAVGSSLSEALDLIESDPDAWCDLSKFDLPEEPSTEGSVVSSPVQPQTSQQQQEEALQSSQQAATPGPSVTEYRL
Put plainly: NMR titration; 15N/1H HSQC of 15N-labelled p300 TAZ2 (100 µM) without and with 100 or 200 µM unlabelled B-Myb TAD; minimal shift approach; 25°C, 600 MHz; 20 mM Bis-Tris, 100 mM NaCl, 5 mM DTT, 20 µM ZnSO4, pH 5.8; Kd estimated from intermediate exchange. Conditions: both partners purified.

B1: TAZ2 domain of the coactivator p300 (domain or fragment, human, UniProt Q09472 1726-1812, looked up)
chain: SPGDSRRLSIQRCIQSLVHACQCRNANCSLPSCQKMKRVVQHTKGCKRKTNGGCPICKQLIALCCYHAKHCQENKCPVPFCLNIKQK
notes: human p300, TAZ2 domain, residues 1726-1812, corresponding to murine CBP TAZ2; cloned into the NdeI and BamHI sites of pET23a; No tag is stated; also called p300 TAZ2
One may read the Kd as the free concentration of one partner at which half of the binding sites on the other are occupied at equilibrium, for simple one-to-one binding. For the molecule B1, the Kd was 1 to 10 µM.
